# Literature values as cited in patent US20200179530A1, “TARGETED DELIVERY OF THERAPEUTIC AGENTS AND IMAGING REAGENTS TO PANCREATIC CANCER CELLS” (UNIVERSITY OF MIAMI, priority 2016, published 2020).
Substance,half-life in tissue,half-life (tissue)
"AvidinOX: avidin variant containing aldehyde groups, generated by ligand-assisted sugar oxidation of avidin by sodium periodate",weeks,
"native avidin: native avidin, comparator for AvidinOX half-life",,about two
